According to the nanobody polyreactivity screen of Harvey et al. (2022):

Assay: yeast display, Sf9 membrane polyspecificity reagent, FACS + sequencing; frameworks hold sequencing errors
Summary of the method: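 Galactose-induced (36–48 hours) yeast carrying a synthetic nanobody display library were exposed to 10% biotinylated, detergent-solubilized Sf9 membrane reagent at 4 °C for 1 hour. FACS followed streptavidin microbead enrichment, using low and high (top ~1%) gates for expression (anti-HA) and reagent binding (streptavidin). Colony PCR, MiSeq 2 × 250 sequencing and CDR-length filtering followed. Labels for polyreactivity reflect the gate of origin.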

Sequence | polyreactivity (PSR sort gate)
QVQLVESGGGLVQAGGSLRLSCAASGRTFVWNAMGWYRQAPGKERELVAAIDWSGGSTYYADSVKGRFTISRDNAKNTVYLQMNSLKPEDSAVYYCAKEYWYRALWYNYWGQGTQVTVSS | high polyreactivity
QVQLVESGGGLVQAGGSLRLSCAASGRTFVWYAMGWYRQAPGKERELVAAITLSGGSTYYADSVKGRFTISRDNAKNTVYLQMNSLKPEDTAVYYCAADGTYRPEDYDYWGQGTQVTVSS | low polyreactivity
QVQLVESGGGLVQAGGSLRLSCAASGRTFVYNAMGWSRQAPGKERELVAAITSGGSTYYADSVKGRFTISRDNAKNTVYLQMNSLKPEDTAVYYCAAYKRGYYWGQGTQVTVSS | high polyreactivity
QVQLVESGGGLVQAGGSLRLSCAASGRTFVYNAMGWYRQAAGKEWELVAAISSDGASTYYADSVKGRFTISRDNAKNTAYLQMNSLKPEDTAVYYCAADFSYYSYEHYYWGQGTQVTVSS | low polyreactivity
QVQLVESGGGLVQAGGSLRLSCAASGRTFVYNAMGWYRQAPGKERELVAAIDGGGDRTYYADSVKGRFTISRDNAKNTVYLQMNSLKPEDTAVYYCNARWQEPLKYDYWGQGTQVTVSS | low polyreactivity
QVQLVESGGGLVQAGGSLRLSCAASGRTFVYNAMGWYRQAPGKEREMVSGITNGGSTNYADSVKGRFTISRDNAKNTVYLQMNSLKPEDTAVYYCAADSRVYPYYFGDFGYWGQGTQVTVSS | low polyreactivity
QVQLVESGGGLVQAGGSLRLSCAASGRTFVYNAMGWYSQAPGKEREMVAAISFGGGNTYYADSVKGRFTISRDNAKNTVYLQMNSLIPEDTAVYYCAKAYIGYWGASWYYAYDYWGQGTQVTVSS | low polyreactivity
QVQLVESGGGLVQAGGSLRLSCAASGRTFVYYAKGWYIQAPGKERELVATISSSDSTNYAYSVKGRFTISRDNAKNTVYLQMNSLKPEDTAVYYCAGGPKGGGYYDPFDYWGQGTQVNVSS | low polyreactivity
QVQLVESGGGLVQAGGSLRLSCAASGRTFVYYAMGWYRQAPGKEREFVAAISRSGGRTSYADSVKGRFTISRDNAKNTVYLQMNSLKPEDTAVYYCAAEKRTQPSSREYYWGQGTQVTVSS | high polyreactivity
QVQLVESGGGLVQAGGSLRLSCAASGRTFVYYAMGWYRQAPGKERELVAAITSGGSTYYADSVKGRFTISRDNAKNTVYLQMNSLKPEDTAVYYCNKARVRGARFDYWGQGTQVTVSS | high polyreactivity
QVQLVESGGGLVQAGGSLRLSCAASGRTFVYYAMGWYRQAPGKERELVATISRRGGGTYYADSVKGRFTISRDNEKNTVYLQMNSLKPEDTAVYYCAAAFSYYPRYDYWGQGTQVTVSS | high polyreactivity
QVQLVESGGGLVQAGGSLRLSCAASGRTFWANTMGWYRQAPGKERELVAAISKRGGSTYYADSVKGRFTISRDNAKNTVYLQMISLKPEDTAVFYCNADKSGWYDYWGQGTQVTVSS | high polyreactivity
QVQLVESGGGLVQAGGSLRLSCAASGRTFWDYGMGWYRQAPGKDRELDATISGNGGDTYYADSVKGRFTISRDTAKNTVYLQMNSLKPEDTAVYYCAADYRFYRTDRHYDYWGQGTQVTVSS | low polyreactivity
QVQLVESGGGLVQAGGSLRLSCAASGRTFWFNDMGWYRQAPGKERELVAAISDTDGSTYYADSVKGLFTISRDNAKNTVYLQMNSLKPEDTAVYYCAAEAYYGYLYAYDYWGQGTQVTVSS | low polyreactivity
QVQLVESGGGLVQAGGSLRLSCAASGRTFWFYDMGWYRQAPGKEREFVASITSSGGSTYYADSVKGRFTISRDIAKNTVYLQMNSLNPEDTAVYYCAASFYWTTRYSREYDYWGQGTQVTVSS | high polyreactivity
QVQLVESGGGLVQAGGSLRLSCAASGRTFWFYTMGWYRKAPGKEREFVAAISSGGSTNYADSVKGRFTISRDNAKYSVYLQMNSLKPEDTALYYCNARFQVGQSEYAVWYYPKYDYWGQGTQVTVSS | low polyreactivity
QVQLVESGGGLVQAGGSLRLSCAASGRTFWGYAMGWYRQAPGKERELVAAISSGGDTTYADSVKGRFTISRDNAKNTVYLQMNSLKPEDTAVYYCAADRWIPVYILGADGYDYWGQGTQVTVSS | low polyreactivity
QVQLVESGGGLVQAGGSLRLSCAASGRTFWHNAMGWYRQEPGKERELVAAITIRGGRTYYADSVKGRFTISRDNAKNTVYLQMNSLKPEDTAVYYCAAPPFVKMDYWGQGTQVTVSS | high polyreactivity
QVQLVESGGGLVQAGGSLRLSCAASGRTFWIYAMGWYRQAPGKERELVAAISRGGSTYADSVKGRFTISRDNAKNTVYLQMNSLKPEDTAVYYCAASTPQYQYYYWGQGTQVTVSS | high polyreactivity
QVQLVESGGGLVQAGGSLRLSCAASGRTFWIYTMGWYRQAPGKEREFVAAISIRGGSTYYADSVKGRFTISRDNAKNTVYLQMNSLKPEDTAVYYCAADGGYSLWADDDYWGQGTQVTVSS | low polyreactivity
QVQLVESGGGLVQAGGSLRLSCAASGRTFWNYAMGWYRQAPGKERELVAVIRFSDGSTYYADSVKGRFTISRDNAKNTVYLQMNSLKPEDTAVYYCAADDLLDYDYWGQGTQVTVSS | low polyreactivity
QVQLVESGGGLVQAGGSLRLSCAASGRTFWNYAMGWYRQATGKERELVAVIRFSDGSTYYADSVKGRFTISRDNAKNTVYLQMNSLKPEDTAVYYCAAKGPRRWGSGFDYWGQGTQVTVSS | low polyreactivity

Sequence | polyreactivity (PSR sort gate)
QVQLVESGGGLVQAGGSLRLSCAASGRTFWPNAMGWYRQAPGKERELVAGIDWSGGSTYYADSVKGRFTISRDNAKNTVYLQMNSLKPEDTAVYYCNKVYYSYIPSTYGYWGQGTQVTVSS | high polyreactivity
QVQLVESGGGLVQAGGSLRLSCAASGRTFWRNAMGWYRQAPGKERELVADITTSGARTYYADSVKGRFTISRDNAKNTVYLQMNSLKPEDTAVYYCAKGPYTPWPKITGYNYWGQGTQVTVSS | high polyreactivity
QVQLVESGGGLVQAGGSLRLSCAASGRTFWRYTMGWYRQAPGKERELVAAISTNAGTTYYADSVKGRFTISRDNAKNTVYLQMNSLKPEDTAVYYCAARHPGNGYADPTNYYWGQGTQVTVSS | high polyreactivity
QVQLVESGGGLVQAGGSLRLSCAASGRTFWSYAMGWYRQAPGKEREFVAAISRRGGITYYADSVKGRFTISRDNAKNTVYLQMNSLKPEDTAVYYCAALPASVRRPGWHDYWGQGTQVTVSS | high polyreactivity
QVQLVESGGGLVQAGGSLRLSCAASGRTFWTNTMGWYRQAPGNEREFVAAITFGDGSTSYADSVKGRFTISRDNAKNTVYLQMNCLIAEVTAVYYCAKRWRRRFVDVWSLYDYWGQGTQVTVSS | low polyreactivity
QVQLVESGGGLVQAGGSLRLSCAASGRTFWWNAMGWYRQAPGKERELVAVISYSGGSTYYADSVKGRFTISRDNAKNTVYLQMNSLKPEDTAVYYCAAEAYTYWDTIYDYLGQGTQVTVSS | high polyreactivity
QVQLVESGGGLVQAGGSLRLSCAASGRTFWYYAMGWYRQAPGKEREFVAAISWSGGSTYYADSVKGRFTISRDNAKNTVYLQMNSLKPEDTAVYYCAADRYDSSQFYYWGQGTQVTVSS | low polyreactivity
QVQLVESGGGLVQAGGSLRLSCAASGRTFWYYAMGWYRQAPGKERELVAAITSGGSTNYADSVKGRFTISRDNAKNTVYLQMNSLKPEDTAVYYCAVDGLGGREGYWGQGTQVTVSS | high polyreactivity
QVQLVESGGGLVQAGGSLRLSCAASGRTFWYYAMGWYRQSPGKERELVAVITSGSSTYYADSVKGRFTISRDNAKNTVYLQMNSLKPEDTAVYYCAVGRTYRRYSAASYNYWGQGTQVTVSS | high polyreactivity
QVQLVESGGGLVQAGGSLRLSCAASGRTFWYYARGWYRQAPGKERELVAYADSVKGRFTISRDNAKNTVYLQMNSLKQEDTAVYYCAVGPVVWFSSSLYYTDYYYWGQGTQVTVSS | low polyreactivity
QVQLVESGGGLVQAGGSLRLSCAASGRTFWYYGMGWYRQAPGKERELVAAIRGSGGSTYYADSVKGRFTISRDNAKNTVYLQMNSLKPEDTAVYYCAKRSYIRPKYTYEYWGQGTQVTVSS | high polyreactivity
QVQLVESGGGLVQAGGSLRLSCAASGRTFWYYGMGWYRQAPGKERELVAAISRSGGRTSYADSVKGRFTISRDNAKNTVYLQMNSLKPEDTAVYYCATDGYYRYGYWGQGTQVTVAS | high polyreactivity
QVQLVESGGGLVQAGGSLRLSCAASGRTFWYYTMGWYRQAPGKEREFVAAISYSAGNTYYADSVKGRFTISRDNAKNTVYLQMNSLKPEDTAVYYCAVQRGYRSNAYDYWGQGTQVTVSS | high polyreactivity
QVQLVESGGGLVQAGGSLRLSCAASGRTFWYYTMGWYRQAPGKERELVASITSGSGTTYYADSVKGRFTISRDNAKNTVYLQMNSLKPEDTAVSSCAAKNTPSFFYYDRYDYWGQGTQVTVSS | low polyreactivity
QVQLVESGGGLVQAGGSLRLSCAASGRTFYANAMGWYRQAPGKERELVATISSGGRTNYADSVKGRFTISRDNAKNTVYFQMNSLKPEDTAVYYCAKRGPYNRWYGRYDYWGQGTQVTVSS | low polyreactivity
QVQLVESGGGLVQAGGSLRLSCAASGRTFYANAMGWYRQAPGKERELVATITRGGSTNYADSVKGRFTISRDNAKNTVYLQMNSLKPEDTAVYYCAARSYTSSHRHYYWGQGTQVTVSS | low polyreactivity
QVQLVESGGGLVQAGGSLRLSCAASGRTFYANLMGWYRQAPGKERELVAAITYSGGSTYYADSVKGRFTISRDNATITVYLPMSSLKPEDTAVYYCAADNVSTFYYWGQGTQVTVSS | low polyreactivity
QVQLVESGGGLVQAGGSLRLSCAASGRTFYANTMGRYRQAPGTERELVAGITSGGSTSYADSVKGRFTISRDNAKNTVYLQMNSLKPEDTAVYYCAAQFYRYTATGYYADGYWGQGTQVTVSS | low polyreactivity
QVQLVESGGGLVQAGGSLRLSCAASGRTFYAYAMGWYRQAPGKDRELVAAITLSTGTTYYADSVKGRFTISRDNAKNTVYLQMNSLKPADTAVYYCAVEGYWYAGWYAMDYWGQGTQVTVSS | low polyreactivity
QVQLVESGGGLVQAGGSLRLSCAASGRTFYAYAMGWYRQAPGKERELVAAITKRDGITFYADSVKGRFTISRDNAKNTVYLQMNSLKPEDTAVYYCAATGYVGGIYGHYPRGYWGQGTQVTVSS | high polyreactivity
QVQLVESGGGLVQAGGSLRLSCAASGRTFYDNTMGWYRQAPGKERELVAAISRGGSTYADSVKGRFTISRDNAKNTVYLELNSLKPEDTAVYYSNKRSITTEYGYWGQGTQVTVSS | low polyreactivity
